Biological target: T1, recombinant murine Factor H (murine, UniProt P06909 19-1234)
T1 construct: murine complement Factor H, residues 19-1234 of UniProt P06909; also called FH; source: CHO cells, transfected, purified from the supernatant (HiTrap His column)
Experiment: ELISA; Figure 1A-B: by the legend varying concentrations of Factor H immobilised on the plate, a fixed concentration of rA2 or of an annexin A2 fragment added, bound annexin A2 detected with an antibody (the methods tell the reverse: 800 ng rA2 adsorbed, Factor H 20 μg/ml in TBS with 2 mM Ca, 3 h, room temperature)
Settings: both partners purified

T1 sequence (P06909 19-1234): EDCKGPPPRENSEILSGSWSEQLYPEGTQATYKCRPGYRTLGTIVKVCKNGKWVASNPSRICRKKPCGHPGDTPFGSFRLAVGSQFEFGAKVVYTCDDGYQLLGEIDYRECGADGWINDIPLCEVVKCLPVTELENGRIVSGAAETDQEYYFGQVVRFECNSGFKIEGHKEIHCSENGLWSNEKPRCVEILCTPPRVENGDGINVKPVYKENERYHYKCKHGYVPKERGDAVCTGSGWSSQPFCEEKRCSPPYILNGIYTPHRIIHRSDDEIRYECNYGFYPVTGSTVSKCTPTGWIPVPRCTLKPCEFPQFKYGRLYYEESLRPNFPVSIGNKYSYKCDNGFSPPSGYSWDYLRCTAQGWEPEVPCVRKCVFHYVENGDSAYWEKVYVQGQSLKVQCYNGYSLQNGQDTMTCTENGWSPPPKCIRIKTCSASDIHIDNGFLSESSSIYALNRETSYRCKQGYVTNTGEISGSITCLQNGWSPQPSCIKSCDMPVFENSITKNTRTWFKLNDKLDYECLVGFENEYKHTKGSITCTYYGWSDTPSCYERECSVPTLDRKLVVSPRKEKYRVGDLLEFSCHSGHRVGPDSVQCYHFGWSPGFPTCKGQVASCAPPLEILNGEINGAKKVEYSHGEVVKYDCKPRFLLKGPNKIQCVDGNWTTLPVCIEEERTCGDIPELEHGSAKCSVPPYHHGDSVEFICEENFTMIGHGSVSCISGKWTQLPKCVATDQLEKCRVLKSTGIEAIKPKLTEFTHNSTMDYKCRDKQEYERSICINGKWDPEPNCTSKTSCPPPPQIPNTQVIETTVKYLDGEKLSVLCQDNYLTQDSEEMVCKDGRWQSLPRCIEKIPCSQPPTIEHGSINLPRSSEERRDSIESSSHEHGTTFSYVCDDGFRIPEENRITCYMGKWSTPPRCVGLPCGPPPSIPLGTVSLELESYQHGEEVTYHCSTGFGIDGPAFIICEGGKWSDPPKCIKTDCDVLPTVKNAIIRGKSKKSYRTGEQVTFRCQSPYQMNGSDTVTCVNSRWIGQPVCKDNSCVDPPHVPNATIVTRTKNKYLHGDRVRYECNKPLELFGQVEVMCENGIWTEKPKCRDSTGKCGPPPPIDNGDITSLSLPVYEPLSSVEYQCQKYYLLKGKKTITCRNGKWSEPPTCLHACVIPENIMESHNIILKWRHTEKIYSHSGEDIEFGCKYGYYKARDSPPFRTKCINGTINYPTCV

binding result: binds
B1: recombinant annexin A2 (natural protein, mouse, UniProt P07356 1-339, looked up)
chain: MSTVHEILCKLSLEGDHSTPPSAYGSVKPYTNFDAERDALNIETAVKTKGVDEVTIVNILTNRSNVQRQDIAFAYQRRTKKELPSALKSALSGHLETVILGLLKTPAQYDASELKASMKGLGTDEDSLIEIICSRTNQELQEINRVYKEMYKTDLEKDIISDTSGDFRKLMVALAKGRRAEDGSVIDYELIDQDARELYDAGVKRKGTDVPKWISIMTERSVCHLQKVFERYKSYSPYDMLESIKKEVKGDLENAFLNLVQCIQNKPLYFADRLYDSMKGKGTRDKVLIRIMVSRSEVDMLKIRSEFKRKYGKSLYYYIQQDTKGDYQKALLYLCGGDD
notes: annexin A2, mouse; cDNA reverse transcribed from total mRNA of a C57BL/6 mouse kidney; also called rA2; AnxA2; source: CHO cells, transfected, purified from the supernatant (HiTrap His column)

Source: PMC12493207, “Annexin A2 interferes with complement regulation within the glomerulus” (The Journal of Biological Chemistry, 2025)
